Experimental data as given in patent US12692310B2, “ASIC1 channel antagonist antibody” (ShanghaiTech University, priority 2019, dated 2026).
Where a chain is given by its changes, count along the chain named.

How the values were obtained:
[1] = tested on: primary cortical neurons from the ASIC1a KO mice (ASIC1a−/−); experiment: ICC staining of primary cortical neurons from ASIC1a KO mice; type: cell-based, mouse
Procedure: Cell Culture. The CHO-K1 cell line (#CRL-9618; ATCC) was maintained in an F-12k media (#21127022; Gibco) containing 10% (vol/vol) FBS (#1600074; Gibco), whereas the FreeStyle 293F (#R79007; ThermoFisher Scientific) cell line was cultured in a Freestyle 293 expression media (#12338026; Thermo-Fisher Scientific). Spodoptera frugiperda 9 (Sf9) cells (#12659017; Thermo-Fisher Scientific) was cultured at 27° C. in an ESF921 media (#96-001-01; Expression Systems). Primary cortical neurons dissected from E18-d-old C57 BL/6 mice or ASIC1a^−/− mice were maintained in a Neurobasal media (#21103049; Gibco) supplemented with B27 (#17504044; Gibco) and Glutamx I (#35050061; Gibco). The CHO-K1/hASIC1a stable cell line overexpressing the full-length hASIC1a (1-528 amino acids) channel was generated as follows: The cDNA of the full-length hASIC1a with a C-terminal eYFP fusion or a C-terminal mCherry fusion was constructed, cloned into a pCDNA3.1-Neo expressing vector, and transfected into the CHO-K1 cells using Lipofectin 2000. The CHO-K1/hASIC1a stable cell line was selected by the antibiotic, geneticin (up to 1 mg/mL), and validated by the fused fluorescence proteins eYFP (λex=488 nm; λem=528 nm) or mCherry fluorescence (λex=587 nm; λem=610 nm) using flow cytometry. Over 80% positive cells survived when cultured in the presence of 200 µg/mL geneticin for 30 days. […]

rASIC1a-eYFP = target: T1, rASIC1a-eYFP (Rattus norvegicus, UniProt P55926); experiment: Species/subtype selectivity, FACS binding and ICC, transfected CHO-K1 cells; type: cell-based
T1 construct: expressed in transfected cells; host or cells: CHO-K1, transient
T1 sequence (P55926 1-526): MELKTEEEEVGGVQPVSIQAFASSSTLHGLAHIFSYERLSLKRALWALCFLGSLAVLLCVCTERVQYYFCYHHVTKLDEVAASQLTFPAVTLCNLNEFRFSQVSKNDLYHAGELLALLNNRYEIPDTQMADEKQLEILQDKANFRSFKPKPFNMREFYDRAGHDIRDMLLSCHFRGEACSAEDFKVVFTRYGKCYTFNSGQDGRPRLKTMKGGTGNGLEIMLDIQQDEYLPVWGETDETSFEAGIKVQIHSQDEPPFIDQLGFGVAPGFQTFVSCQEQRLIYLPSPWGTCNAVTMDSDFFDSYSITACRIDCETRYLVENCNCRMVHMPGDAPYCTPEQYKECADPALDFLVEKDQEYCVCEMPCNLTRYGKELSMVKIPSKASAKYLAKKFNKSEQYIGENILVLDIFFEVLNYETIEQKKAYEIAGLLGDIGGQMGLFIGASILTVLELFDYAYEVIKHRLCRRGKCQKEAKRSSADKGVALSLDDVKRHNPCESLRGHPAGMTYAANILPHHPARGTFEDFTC
Procedure: (§1) Cell Membrane Colocalization Studies Using Immunocytochemistry (ICC). Cells (CHO-K1) were seeded onto the poly-D-lysine-coated glass bottom 24-well plates at a concentration of 2×10^5 cells per mL. After 12 h of cultivation, the CHO-K1 cells were transfected with ASIC plasmids by Lipofectin 3000 reagent. Twenty-four hours after transfection, the cells were fixed in 4% paraformaldehyde and incubated for 30 min in a blocking solution (5% goat serum in PBS). The resulting cells were incubated with […] ASC06-IgG1 at 4° C. overnight followed by three PBS washes for 5 min each and incubation with the Alexa555-conjugated goat anti-human secondary antibody (Life Technology). After three additional PBS washes for 5 min each, the nuclei of the cells were stained with DAPI (#10236276001; Roche). The ICC analysis was performed on a laser scanning confocal microscopy (ZEISS LSM710) with a 63×N.A. 1.4 objective at 25° C. Images were collected on a 1,024×1,024-pixel EM-CCD camera. Data acquisition and analyses were performed with the ZEN 2012 professional software.
(§2) To test the species and subtype selectivity of ASC06-IgG1, vectors encoding human ASIC1b-eYFP fusion, rat ASIC1a-eYFP fusion, mouse ASIC1a-eYFP fusion, hASIC2a-eYFP fusion, hASIC2b-eYFP fusion, and hASIC3a-eYFP fusion were constructed. The CHO-K1 cells were transiently transfected with these plasmids. FACS binding assay and immunocytochemistry (ICC) were carried out to determine if ASC06-IgG1 is able to bind to the cell surface-expressed ASIC homologs and isotypes.

mASIC1a-eYFP = target: T2, mASIC1a-eYFP (Mus musculus, UniProt Q6NXK8); experiment: as above; type: cell-based
T2 construct: expressed in transfected cells; host or cells: CHO-K1, transient
T2 sequence (Q6NXK8 1-526): T1 sequence (P55926 1-526) with S476N
Procedure: as §1, §2

B1: ASC06-IgG1: ASC06 antibody converted into a full length IgG1 form (antibody, V domains shown)
VH: QVQLQQSGGGLVQPGGSLRLSCAASGFTFSSYAMSWVRQAPGKGLEWVSAISGSGGSTYYADSVKGRFTISRDNSKNTLYLQMNSLRAEDTAVYYCAKDSFYGYSKGDWGQGTLVTVSS
VL: QSALTQPASVSGSPGQSITISCTGTSSDVGAYNYVSWYQQQPGKAPKLMIYGVSNRPSGVSNRFSGSKSGNAASLTISGLQAEDEADYYCSSYTSSSTYVFGTGTKLTVLG
- binding to KO neurons transfected with hASIC1a-mCherry ([1]; transfected with hASIC1a-mCherry): binding occurs in the postsynaptic dendrites
- binding to primary neurons from the KO mice ([1]; untransfected ASIC1a−/− neurons): no apparent binding
- FACS recognition of rat ASIC1a (rASIC1a-eYFP; FACS): recognized
- ICC membrane co-localization with rASIC1a-eYFP (rASIC1a-eYFP; ICC staining): membrane co-localization
- FACS recognition of mouse ASIC1a (mASIC1a-eYFP; FACS): recognized
- ICC membrane co-localization with mASIC1a-eYFP (mASIC1a-eYFP; ICC staining): membrane co-localization
